Data: patent publication US20260053913A1 (BIOENTRE, published 2026)

How the values were obtained:
[1] = target: T1, human CTLA4 (cytotoxic T-lymphocyte-associated antigen-4), isoform CTLA4-TM (human, UniProt P16410 36-223); test: cell-based or functional assay
T1 sequence: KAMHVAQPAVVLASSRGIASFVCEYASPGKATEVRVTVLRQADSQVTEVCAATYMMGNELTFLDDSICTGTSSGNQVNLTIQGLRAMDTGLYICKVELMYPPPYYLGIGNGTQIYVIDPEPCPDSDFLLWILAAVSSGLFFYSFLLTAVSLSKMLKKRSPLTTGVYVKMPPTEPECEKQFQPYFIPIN

[2] = target: human CTLA4 (cytotoxic T-lymphocyte-associated antigen-4), isoform CTLA4-TM (human) (UniProt P16410); test: cell-based or functional assay

B1: BioE2032 (121 HuIgG1) (antibody, V domains shown)
VH: QVQLQESGPGLVKPSQTLSLTCTVSGFSLTSYGVYWVRQPPGKGLEWLGVIWAGGTTNYNSALMSRLTISKDTSKNQVSLKLSSVTAADTAVYYCARGPPHAMMKRGYAMDYWGQGTLVTVSS
VL: DIQMTQSPSSLSASVGDRVTITCSATSSITYMSWYQQKPGKAPKLLIYDTSNLASGVPSRFSGSGSGTDYTLTISSLQPEDFATYYCQQWSSYPLTFGGGTKLEIK
half maximum activity concentration, αCTLA 4 functional blockade assay [1]: ~50 nM

B2: L3D10 (antibody, from another filing, V domains shown)
VH: QVQLKESGPGLVAPSQSLSITCTVSGFSLTSYGLSWVRQPPGKGLEWLGVIWYDGNTNFHSALISRLTISKDNSKSQVFLELNSLQTDDTATYYCAKTEGHYYGSNYGYYALDYWGQGTSVTVSS
VL: DIQMTQSPASLSVSVGETVTITCRASENIYSNLAWYQQKQGKSPQLLVYAATNLADGVPSRFSGSGSGTQYSLKINSLQSEDFGTYFCQHLWGTPYTFGGGTKLEIKR
maximal activity (ratio RLU), αCTLA 4 functional blockade assay [2]: 15 ratio RLU | plateau of the titration curve (ratio RLU over background) at 200 nM or greater [2]: 15 to 20 ratio RLU

B3: BNI3, mouse IgG2a anti-human CTLA4 (CD152) antibody from BioXcell (antibody, V domains shown)
VH: DVQLQESGPGLVKPSQSLSLTCSVTGYSITSGYVWNWIRQFPGNKLEWMGYISHDGNTNYNPSLKNRISITRDTSKNQFFLKLNSVTTEDSATYYCTRNYGYGGTMDYWGQGTAVSVSS
VL: DIVMTQSQKFMSTSVGDRVSVTCKASQNVGTYVAWYEQKLGQSPKALIFSASYRYTGVPDRFTGSGSGTDFTLTISNVQSEDLAEYFCQQYDSYPLTFGGGTKLEIKR
biological activity relative to Ipilimumab, Promega anti-CTLA 4 and anti-CTLA 4 + anti-PD1 functional blockade assays [1]: < 60 % of Ipilimumab activity | half maximum activity concentration, αCTLA 4 functional blockade assay [1]: ~50 nM
